Laboratory results published in patent publication US20230348564A1, “ANTI-CANCER PROTEINS” (UNICHEM LABORATORIES LTD, priority 2020, published 2023).

What was measured:
U251MG cell line = test: Mitochondrial membrane depolarization by JC-1 staining; assay type: cell-based, Human; details: 1 μg/mL-80 μg/mL
Description: (§1) The evaluation of pro-apoptotic effect of SEQ ID NO. 2 in brain tumor cell lines U251MG & IOMM Lee was conducted. The cells were treated with SEQ ID NO. 2 at various concentrations around IC50 values. Resultant effect on apoptosis was determined via externalization of Phosphatidyl Serine (PS) on cell membrane by Annexin-V staining, mitochondrial membrane depolarization by JC-1 staining and cell cycle distribution analysis by Propidium Iodide (PI) staining. Increase in apoptotic markers in U251MG & IOMM-Lee cell lines reflected the pro-apoptotic potential of SEQ ID NO. 2 in brain tumor. • Externalization of PS on cell membrane by Annexin-V staining on U251MG cell line: SEQ ID NO.

IOMM-Lee cell line = test: as above; assay type: cell-based, Human; details: 1 μg/mL-80 μg/mL
Description: as §1

Glioma (C6) = test: cytotoxicity in Brain Tumor Cell lines by MTT assay; assay type: cell-based, Rat; details: 72 h
Description: The SEQ ID NO. […] Untreated cells were used as control. […] Cells were incubated for 3 h at 37° C.

[1] = test system: MCF-10A (Human mammary epithelial cells); test: Calcein AM cytotoxicity assay; details: 48h
Description: (§2) All the cancer cell lines were procured from National Centre for Cell Science, Pune (India). The cell lines were maintained under conditions as described in Table 21 below. The cell lines were sub-cultured by trypsinization followed by splitting the cell suspension into fresh flasks and supplementing with fresh culture medium.
(§3) All the cell lines were grown in specified media at 37° C. with 95% Humidity and […].
(§4) The cells were trypsinized, counted by Trypan blue method in Neuebauer's Chamber and plated in wells of flat bottom 96-well plate (dark walled plate, flat bottom) at the density corresponding to 10×10^3 cells/well/180 μl medium.
(§5) Following overnight incubation, the cells were treated with test item (20 μL) at concentrations ranging from 2.5-80 μg/mL, so that the total volume in each well is 200 μL.
(§6) The cells were incubated with the test items or positive control for a time period of 48h. Following incubation, the cell cytotoxicity was estimated using Calcein AM Cell Viability Assay Kit from R&D systems (Cat No. 4892-010-K).
(§7) Fluorescence was measured at 485 nm (excitation/528 run (emission) spectra using Synergy HT micro plate reader.
(§8) Percentage cytotoxicity wrt untreated cells was calculated using formula:
(§9) Cytotoxicity=[(RFUuntreated−RFUsample)/RFUuntreated]*100
(§10) RFU: relative fluorescence units
(§11) IC50 value was calculated using Graph-Pad Prism version 4.01 software.

[2] = test system: THP-1 (Human acute monocytic leukemia); test: Calcein AM cytotoxicity assay; details: 48h
Description: as §2, §3, §4, §5, §6, §7, §8, §9, §10, §11

[3] = test system: A549 (Human lung carcinoma); test: Calcein AM cytotoxicity assay; details: 48h
Description: as §2, §3, §4, §5, §6, §7, §8, §9, §10, §11

[4] = test system: Human Primary mammary epithelial (HMEC) cells; test: Calcein AM cytotoxicity assay; details: 48h
Description: as §2, §3, §4, §5, §6, §7, §8, §9, §10, §11

[5] = test system: PBMCs (Peripheral blood mononuclear cells); test: Calcein AM cytotoxicity assay; details: 48h
Description: as §2, §3, §4, §5, §6, §7, §8, §9, §10, §11

[6] = test system: SiHa (Human cervix squamous cell carcinoma); test: Calcein AM cytotoxicity assay; details: 48h
Description: as §2, §3, §4, §5, §6, §7, §8, §9, §10, §11

[7] = test system: SK-Mel-28 (Human melanoma); test: Calcein AM cytotoxicity assay; details: 48h
Description: as §2, §3, §4, §5, §6, §7, §8, §9, §10, §11

[8] = test system: PA-1 (Human Ovary carcinoma); test: Calcein AM cytotoxicity assay; details: 48h
Description: as §2, §3, §4, §5, §6, §7, §8, §9, §10, §11

[9] = test system: SKOV-3 (Human Ovary adenocarcinoma); test: Calcein AM cytotoxicity assay; details: 48h
Description: as §2, §3, §4, §5, §6, §7, §8, §9, §10, §11

[10] = test system: KB (Human cervical carcinoma); test: Calcein AM cytotoxicity assay; details: 48h
Description: as §2, §3, §4, §5, §6, §7, §8, §9, §10, §11

[11] = test system: AGS (Human stomach adenocarcinoma); test: Calcein AM cytotoxicity assay; details: 48h
Description: as §2, §3, §4, §5, §6, §7, §8, §9, §10, §11

[12] = test system: PC-3 (Human Prostate Cancer); test: Calcein AM cytotoxicity assay; details: 48h
Description: as §2, §3, §4, §5, §6, §7, §8, §9, §10, §11

[13] = test system: MCF-7 (Human breast adenocarcinoma); test: Calcein AM cytotoxicity assay; details: 48h
Description: as §2, §3, §4, §5, §6, §7, §8, §9, §10, §11

[14] = test system: ZR-75-1 (Human ductal carcinoma); test: Calcein AM cytotoxicity assay; details: 48h
Description: as §2, §3, §4, §5, §6, §7, §8, §9, §10, §11

[15] = test system: SW620 (Human Colorectal adenocarcinoma); test: Calcein AM cytotoxicity assay; details: 48h
Description: as §2, §3, §4, §5, §6, §7, §8, §9, §10, §11

[16] = test system: HT-29 (Human Colorectal adenocarcinoma); test: Calcein AM cytotoxicity assay; details: 48h
Description: as §2, §3, §4, §5, §6, §7, §8, §9, §10, §11

Glioblastoma (U251MG) = test: cytotoxicity in Brain Tumor Cell lines by MTT assay; details: 72 h

B1: SEQ ID NO. 2: recombinant lectin; variant of the S. rolfsii lectin amino acid sequence (reported as Rec-2 in WO 2010/095143) (protein)
chain: TYKITVRVYQTNPDAFFHPVEKTVWKYANGGTWTITDDQHVLTMGGSGTSGTLRFHADNGESFTATFGVHNYKRWCDIVTNLAADETGMVINQQYYSQKNREEARERQLSNYQVKNAKGRNFQIVYTEAEGNDLHANLIIG
modifications: In vitro synthesis
**Q.** Which results are given for B1?
**A.** increase in mitochondrial membrane depolarization as compared to Control (Untreated) (U251MG cell line): 36.8%-60.9%; increase in mitochondrial membrane depolarization as compared to Control (Untreated) (IOMM-Lee cell line): 16.1%-36.4%; % Cytotoxicity (HT-29): 54.9%; % of cytotoxicity (Glioma (C6); 2.5 μg/mL-100 μg/mL): 18.8-48.3%; IC50 Value (Glioma (C6)): >100 µg/mL; IC50 [1]: >80 µg/mL; IC50 [2]: >80 µg/mL; IC50 [3]: >80 µg/mL; IC50 [4]: >80 µg/mL; IC50 [5]: >80 µg/mL; IC50 [6]: >80 µg/mL; IC50 [7]: >80 µg/mL; IC50 [8]: 20.3 µg/mL; IC50 [9]: >80 µg/mL; IC50 [10]: 18.4 µg/mL; IC50 [11]: 42.6 µg/mL; IC50 [12]: >80 µg/mL; IC50 [13]: >80 µg/mL; IC50 [14]: >80 µg/mL; IC50 [15]: >80 µg/mL; IC50 [16]: 42.0 µg/mL; % Cytotoxicity (MDA-MB-231): 60.9%; % Cytotoxicity (PA-1): 72.0%; IC50 Value (Glioblastoma (U251MG)): 11.05 µg/mL
